According to publication PMC6254012, “AP2/ERF Family Transcription Factors ORA59 and RAP2.3 Interact in the Nucleus and Function Together in Ethylene Responses” (Frontiers in Plant Science, 2018):

Target: T1, His-tagged RAP2.3 (RAP2.3-His) (Arabidopsis thaliana, UniProt P42736 1-248)
T1 construct: RAP2.3 (related to AP2.3), Arabidopsis thaliana; not shown: His, C-terminal, kept
Assay: pull-down; GST or ORA59-GST (10 μg) on glutathione sepharose 4B beads, RAP2.3-His (10 μg) added for 2 h at 4°C; 25 mM Tris-HCl pH 8.0, 100 mM NaCl, 1% Triton X-100, 1 mM DTT; immunoblot with anti-GST and anti-His
Settings: both partners purified

T1 sequence (P42736 whole entry): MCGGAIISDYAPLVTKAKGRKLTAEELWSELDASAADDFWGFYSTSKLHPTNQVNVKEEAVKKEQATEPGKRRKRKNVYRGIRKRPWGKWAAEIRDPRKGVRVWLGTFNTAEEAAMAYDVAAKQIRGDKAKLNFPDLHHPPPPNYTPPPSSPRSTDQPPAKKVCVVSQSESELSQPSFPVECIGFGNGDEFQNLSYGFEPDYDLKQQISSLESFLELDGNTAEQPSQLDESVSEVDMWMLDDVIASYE

B1: C-terminal GST-tagged ORA59 (ORA59-GST) (natural protein)
chain: not shown
notes: ORA59 (octadecanoid-responsive arabidopsis 59), Arabidopsis thaliana; not shown: GST, C-terminal, kept
- binding result: binds
